The values that follow come from patent publication US20180265552A1 (INSTITUT NATIONAL DE LA RECHERCHE AGRONOMIQUE, published 2018).

The target in the assay is TRCP VLP. The experiment in a line: titration, native agarose gel mobility shift.

B1: Nb23 fused to EGFP (VHH)
VHH: QVQLQESGGGSVQVGGSLRVACAASGDTFSGYLAAWFRQAPGKGREGVAAINSKRHTTSYADSVKGRFTISKDNADNIMYLEMNSLKPEDTAIYYCAAADAIGLAEYWSTPTLSAARYKYWGQGTQVTVSS
As to B1, the “molecular ratio between GFLV CP and Nb23:GFP at maximum mobility shift” value was ~1 Nb23:GFP per CP.
